Data published in a protein production outcome set (Wang et al. 2014).

Experiment: label from the status in PepcDB records

| Sequence | protein production |
| --- | --- |
| MRTVDVFHPQAASNSAAVHASPQTTVAFSPDGTHYASAGYDGRVVLWDRSGTSPRWVGRHSRLVNGVRFSPSGRLLASGSADKTCRIWEVATGRQVQLLARQPDDLNALAWLDENRLVTVSQDGTGRIWDIRTGVLQEGVIFHADHCMSVDAAPTGVLASCGEDATIRLWDTDGSLLRDLPQAGHAEMCRWSPDGTLLAASCDDGFVHIVRTDGELVTKVGPYTAAVKSVAWSQDGSRIVIGAYDSTIALWDIADCRPLVRWYGAHLWPRAVDWSADGRTVVAGTFSARPAVIDVPEIPADALPDEVREITLEASVPTHGVNHVSAAGEVLAAGGDNGTIRVWSHRGATATEVPVGNGSLVNTVAVSAELPGLVAYGSFSGRVGVADAVTGRDVAAVQREHPVNRAAWSPDGRRLAVADYEGGLDLYAWTGRELVPGVHYAGHDGAIKDVSWVDADRLVTYSTDRRAHLITTEGTLIRSFGGHGELINGGSVTTVAGRALLATVSRDRTSRIYDLETGELLQVLVGHDESAKCAAWHPGGEPLLVTGSYDFTGRLWVLDPKTLAPLHQHVLEGHGSAVSAVCWLGDDAVTASWDSKVFTWTPDADPARPPAAAEPATDWRVREGSR | failed |
| MRTVVDYGAAIAFGVAYFVTKDFQKATWVLVAASAAALAIGYAVERRLAMLPLFFGGMALVFGTLGLIFGSDVFVKIKVTVINLALASFLVGGVLLKRQPLKVIMGEALHLPDAAWRTLTLRYGAYFAFVAIINEVVRNTQDTDTWVKFRLALLPVALVFVATQLPFMMKHMAKGDDAKAVEPPDAGF | failed |
| MRVAILGCGYVGCALARRLLAAGHDVVGVCRSPDSLDAVRETGATAVRADVTDAASLAAVPDADAVVFAASSGGRGADAAREVYVDGLRTVVEQFGGRDDPPEQLVYTSSTGVYGDHDGDWVDEETPLDPTTEKTAALVDAERVALTDASEHGLDPTVVRFAGLYGPDRYRLTRYLDGPVTEGYLNMIHRDDAAGVVAFALTDADADVLLAVDDDPVSKWAFADWLADEAGVPQPAKQTVAERIAAGDLSTPAERRLRTSKRCSNARLTELGYSFAHPTFRSGYQAAIRAHERGEYK | failed |
| MRVAVITDSHGNAYALEATLREVHAAAPDLIVNLGDQIEGCADPARAAALQADLGALEVRGNNEEKLWPDGRRTPLAQEVGAWLAAQVSPADRERLAALPLTARVEGLFACHGTPESAWDSLLWVWDAAGGFYRSRDPRELRRMVEPLGAEVVVCGHTHRAGATRVGDTLVVNCGAISDQVDGDPRARWTLLERRGGGWNVEFHNVAYDIAGAVAWARAHSPFGDFEAHLLESGEMTGRGTGGI | failed |
| MRVDIWSDVVCPFCYIGKKRLEHVAAEAGIELDVHWHSFELDPDAPTSHDTSNTERLAKKYGRTFEEMQEMQQNIASMAAQEGIDFQWQKANSGNSFNAHRIIHLAQSKGLGNEAEEAFFHAYMTEGLAIGEREVVEEIASRIGLDHAEVEFVLDSNELSDFVRHDEKIAHEQLNISGVPFFVFDQKLALSGAQPKEVFLQVLQKALTQRENDAVAEASSDAVCSDDSCDIPQKS | failed |
| MRVGALDVGEARIGLAVGEEGVPLASGRGYLVRKTLEEDVEALLDFVRREGLGKLVVGLPLRTDLKESAQAGKVLPLVEALRARGVEVELWDERFTTKLAQERLKHAPKRLRRDKGKLDELAAVVLLEDYLARGI | not failed |
| MRVLITGATGGLGGAFARALKGHDLLLSGRRAGALAELAREVGARALPADLADELEAKALLEEAGPLDLLVHAVGKAGRASVREAGRDLVEEMLAAHLLTAAFVLKHARFQKGARAVFFGAYPRYVQVPGFAAYAAAKGALEAYLEAARKELLREGVHLVLVRLPAVATGLWAPLGGPPKGALSPEEAARKVLEGLFREPVPALLEV | not failed |
| MRVLVIGATGHVGTYLVPRLVEAGHDVVTISRGAARPYTADRAWASVDQRQMDRVEMERKGDFGPAMRALNADIVIDMICFTLESAEQLVTALSGYVGHFLHTGTIWTHGYPVAVPTREEAPKSPFGDYGIQKAAIETYLLQQARLRGFPATIIHPGHIVGRGWAPLNPAGNFNLQVFSTLARGEALALPNFGLETVHHVHADDVAAMFMDAIANRNASLGESFHAVSEQALTLRGYAESMSRWFGRDPKLTFAPFDAWARGQAAEDAEATWEHIARSPNCSIAKARRLLGYGPRYTSLQAVQESVGWLLGQGRIKS | failed |
| MRVNGLTKGFFILIVFIVTLAFFDVLSPYYSAILWAAILAVIFNPVKNKIRTRLGERNGLAALMTIVIICLIVFTPLAIILSSLAYELNLVYSKLQHNDTQFPTVVASLFAHLPGWARSFLADHNLDSAQQIQQQLSDAALKGGQYLAGSAFLIGKGTFGFTVSFGIMLYLLFFLLKDGPYLVLLILESLPLSSYVKQHLFAKFAAVARATVKGTVAVALAQGALGGFAFWIAGLDGSILWGALMAFLSLIPAVGSAIIWVPAAIYLFATGQLWQGAFIVGFFVIVIGLVDNILRPLLVGKDTRMPDYLILIATLGGMEIYGINGFVIGPLIAALFIACWNLLSGREHAGNTDEIDEEFIEEAKNSRNE | failed |
| MRVQANSRSMGVLEDKARARTFYKYLSKVYDRVNTFIWTEEMRAEALSMLDIDAEDRVLDVGCGTGFGTEGLLKHTEHVYGLDQSPHQLTKAWEKFGKHDPVAFHFGDAERLPFKPDSFDVVWSSGSIEYWPHPVQGLRELRRVAKPGSQVLVVGPDYPASTVFRKLADAIMLFYDEDEADRMFREAGYEEIQHRVLRKEPNSPPAIVTVARAPAADD | failed |
| MRVRTERLTLAGLSVLARIPEAPKALLLALHGLQGSKEHILALLPGYAERGFLLLAFDAPRHGEREGPPPSSKSPRYVEEVYRVALGFKEEARRVAEEAERRFGLPLFLAGGSLGAFVAHLLLAEGFRPRGVLAFIGSGFPMKLPQGQVVEDPGVLALYQAPPATRGEAYGGVPLLHLHGSRDLIVPLARMEKTLEALRPHYPEGRLARFVEEGAGHTLTPLMARVGLAFLEHWLEAR | not failed |
| MRVSVVIPARNEEAYLPSALEAVLAQTLPPFEVIVVDNASTDRTREVAEAFGARVVFCGRKGVAYARQAGLLAARGEWVAMTDADSLPTPRWLERLAHKAPGAVAVYGPLRFYGVSPLEAAFSEWGYRAFLNLMALLGRPNLAGANMMVLKEAALKVGGFPEVEAREDVLLGWRLKALGPVRYARDALVLTSARRLQGGWGRFLLRQARNLLGDPRGYFGEAGERER | failed |
| MRVTGVIIRIIRQFFRDKRSLAMMFGAPMLLLWLLSLVFTQKDYVPHIAVVDMPVQVVKVMKNQEASIYEYSKEKAMSELENQKVDAVIRLENGKMNIVLEGSDSSKNRAVLQILQKSTEKNDVSIMKPEVNYLHGSKDFTMFDGLGPVLIGFFTFFFVFILSGVSFVRERLSGTLERLLSTPIKRWEIVVGYIIGFGIFAFIQSIIIVSFSVYILDLYVAGSIWLTLLITCMLSLTALTLGTFLSAYANNEFQMIQFIPLVIVPQIFFSGLFPIESMNKWLQMLGKLFPLTYGADAMRQVMIRNQGFTEIALDLTVLLFFSVLFAVGNVFALKKHRKI | failed |
| MRVVHILLQVGILYGFYLVGSWIQKSFELIVPGSIIGMVLLLIALAIKAISPKWIEQGSMQLLLLMPMLFLPVTVGIMEYWHMFHGSGFWLLIIAFVSTILVFIISGWITQWLIAWKTKGIDKHDHL | failed |
| MRVVIVGAGKVGYSLAQYLTQEDHEVIVIEENEERRAIVQNTLDVMTISGNGASPRVLLDPEVRKAELMIAVTDMDEVNMIACMAAKQVGIKRTIARVRNQEYAEKDKIKFNEALGIDLTINPEMVTALEIKRILLTPSALDVEDFAGDRVRMIEVKMPSDSKLINTSLTQLTLPSHTLVAGILRNGRMLIPHGSDMLLPNDCVFFVGEVSAIKKIEDHFTVRKSKVERVLIIGAGRIGRHLAMILEKSDIAVKIIDKDMERCQELAESLDEGLVLCGEGTDIELLTEEGVGEADAVLCLTDDDKLNLLIALLAKHLGAPRTFVRVGRPDYISLMEKVGVDVVLSPRILTAGVILRYVRRSDVVSVSLLEGAKAEAMEIIIPPLSQVTHKKLKDAKLPKNSLIGSIVRDEEIIIPNGETVLKPGDRAIIFALPDTVPTVVRLFENKLESK | failed |
| MRVYDMHVHLHEYSDREVEEILDADKSLVVVAVSDDLESAWRTLDLWHTFGGRVVPCLGFHPWNVREGRVWEAWEVLRLAYRYGVPCLGEVGLDRRFVDEYTWRVQNEVFDAFVQLAEDMGVMLNIHAPDAWKHVAHRIGWTSRARFMYHWYTGPATLPRALPEGRVWFSINSAIRVQEKSVRVAREIPLRSLVVESDGPYNYRGLRLSPLMVRETVKLVAEARGEDPGRLMEAISLNSERLLGLL | failed |
